Experimental data from PMC4760375, “A dual phosphorylation switch controls 14-3-3-dependent cell surface expression of TASK-1” (Journal of Cell Science, 2016).
Like-named read-outs stand apart in the source and are kept apart here. Non-standard residues stand in square brackets, D forms with d. Residues, ends and D or L forms follow the SMILES beside them. No end group written: not given here. pS = N[C@@H](COP(=O)(O)O)C(=O)O

Experiments:
[1] = tested on: 14-3-3 proteins (all seven isoforms); assay: Fluorescence polarization titration, statements across the 14-3-3 isoforms; format: binding, human
Description: TASK-1 or TASK-3 C-terminal fluorescent peptides (10 nM), comprising the last 15 amino acids of the respective C-termini, were titrated with concentrations of the 14-3-3 proteins ranging from 1 nM to 120 µM (Fig. 2), and the equilibrium dissociation constants of 14-3-3 proteins were calculated for TASK-1 phosphorylated at S393 (TASK-1 pS393; the conserved serine residue of the mode III 14-3-3-binding motif) and for TASK-3 phosphorylated at S373 (TASK-3 pS373) (Table 1). They ranged from 7.5±0.14 µM (mean±s.e.m.; 14-3-3β) to 49.4±2 µM (14-3-3τ) for TASK-1, whereas dissociation constants for TASK-3 ranged from 110±10 nM (14-3-3η) to 3.6±0.44 µM (14-3-3σ). The latter value matches the result determined previously by [Anders et al. (2013]) for the TASK-3 C-terminal hexapeptide using isothermal titration calorimetry. The dissociation constants of the seven mammalian 14-3-3 isoforms for the same TASK C-terminal peptide differed up to sevenfold for TASK-1-derived peptides and up to 30-fold for TASK-3-derived peptides. […] No binding of any 14-3-3 isoform to any TASK C-terminal peptide was observed when the peptides were not phosphorylated.
Fig. 2. […] Fluorescence polarization titration of fluorescein-labeled TASK-1 pS393 (black), TASK-3 pS373 (red) and TASK-3 pS373 ΔV374 (blue) peptide (10 nM) with increasing concentrations of the indicated 14-3-3 isoform. Fluorescein was excited at 485 nm, and fluorescence polarization was monitored at 535 nm. A monophasic fit was used to fit the data (Goodness-of-fit: R^2 from 0.76 to 0.98). No binding was detectable for the unphosphorylated TASK C-terminal peptides. The assay was repeated at least six times for each data point with two batches of independently purified 14-3-3 proteins. Error bars depict s.e.m. (A) 14-3-3β, (B) 14-3-3γ, (C) 14-3-3ε, (D) 14-3-3ζ, (E) 14-3-3η and (F) 14-3-3τ.
[Mant et al. (2011)] report that both serine residues present in the TASK-1 C-terminus can be phosphorylated in vitro by the recombinant catalytic subunit of PKA. […] Next, using fluorescence polarization titration, we determined how phosphorylation of S392 affects the affinity of all seven mammalian 14-3-3 proteins for the TASK-1 C-terminus – either when phosphorylated alone or in combination with phosphorylation of S393 (Table S1). […] Because all Kd values determined for TASK-1 pS392 and the doubly phosphorylated protein (at S392 and S393) were substantially higher than those measured for TASK-1 pS393 (Table S1), we conclude that phosphorylation of S392 cannot substitute for phosphorylated S393 in creating a high-affinity 14-3-3 binding site. On the contrary, our results are consistent with an inhibitory role for phosphorylation of S392 with respect to 14-3-3-mediated binding.
Interactions between 14-3-3 proteins and TASK-1 and TASK-3 C-terminal peptides and variants were investigated using a fluorescence polarization assay ([Moll et al., 2006]; [Muda et al., 2014]). Fluorescein-labeled peptides were purchased from Peps4Life Sciences (Heidelberg, Germany). All measurements were performed in buffer containing 20 mM MOPS, 150 mM NaCl, 0.005% (v/v) CHAPS pH 7.0, using a Fusion™ α-FP microtiter plate reader at room temperature in a 384-well microtiter plater (Optiplate 384, black; Packard, Meriden, CT). 14-3-3 proteins were serially diluted from 100 µM to 1 nM and incubated with 10 nM of fluorescently labeled peptide. The fluorescence polarization signal was detected for 2 s at an excitation wavelength of 485 nm with an emission fluorescence polarization filter wavelength of 535 nm and a photomultiplier voltage of 1100. Data were analyzed with GraphPad Prism 6.0 (GraphPad Software, San Diego, CA) by plotting the obtained fluorescence polarization signal in millipolarization units (mPol) against the logarithm of the 14-3-3 protein concentration. The data were then fitted using a monophasic fit.

[2] = biological target: TASK-1 pS392 C-terminal fluorescent peptide (human) (UniProt O14649); assay: fluorescence polarisation; 10 nM fluorescein-labelled peptide titrated with 14-3-3 protein (1 nM to 120 µM in the results, 100 µM to 1 nM in the methods); 20 mM MOPS, 150 mM NaCl, 0.005% (v/v) CHAPS pH 7.0; room temperature; monophasic fit
[3] = biological target: TASK-3 pS373 C-terminal fluorescent peptide (last 15 amino acids) (human) (UniProt Q9NPC2); assay: as above
[4] = biological target: GST-tagged TASK-3 C-terminal 15 residues fusion protein, phosphorylated with PKA catalytic subunit (human) (UniProt Q9NPC2); assay: SPR; GST fusion protein captured by an anti-GST antibody on an HC1000m chip, phosphorylated on the chip with PKA catalytic subunit; 14-3-3 proteins as analyte; 20°C; 150 mM NaCl, 20 mM HEPES, 0.005% (v/v) Tween 20, pH 7.5; equilibrium binding isotherms
[5] = biological target: T1, GST-tagged TASK-3 C-terminal 15 residues fusion protein, phosphorylated with PKA catalytic subunit (human, UniProt Q9NPC2 360-374); assay: SPR
T1 chain: {GST}-SFTDHQRLMKRRK[pS]V

[6] = biological target: TASK-1 pS393 C-terminal fluorescent peptide (last 15 amino acids) (human) (UniProt O14649); assay: fluorescence polarisation; 10 nM fluorescein-labelled peptide titrated with 14-3-3 protein (1 nM to 120 µM in the results, 100 µM to 1 nM in the methods); 20 mM MOPS, 150 mM NaCl, 0.005% (v/v) CHAPS pH 7.0; room temperature; monophasic fit
[7] = fluorescence polarization, best of the seven isoforms, read-out: Kd of the highest-affinity 14-3-3 interaction

With `CSCC[C@H](NC(=O)[C@H](CC(C)C)NC(=O)CNC(=O)[C@H](CCCNC(=N)N)NC(=O)[C@H](Cc1ccccc1)NC(=O)[C@@H](NC(=O)[C@H](CO)NC(=O)[C@H](CC(C)C)NC(=O)[C@H](CO)NC(=O)[C@@H](N)CS)[C@@H](C)O)C(=O)N[C@@H](CCCCN)C(=O)N[C@@H](CCCNC(=N)N)C(=O)N[C@@H](CCCNC(=N)N)C(=O)N[C@@H](CO)C(=O)N[C@@H](COP(=O)(O)O)C(=O)N[C@H](C(=O)O)C(C)C` [TASK-1 pS393] (H-CSLSTFRGLMKRRS[pS]V-OH; N-terminus assumed) the “fold lower affinity for 14-3-3 proteins than the TASK-3 C-terminus” value ([1]; fluorescence polarization, TASK-1 pS393 versus TASK-3 pS373) was 10- to 100 fold and the Kd [1, 7] was about 10 µM.

In the case of `CSCC[C@H](NC(=O)[C@H](CC(C)C)NC(=O)[C@H](CCCNC(=N)N)NC(=O)[C@H](CCC(N)=O)NC(=O)[C@H](Cc1c[nH]cn1)NC(=O)[C@H](CC(=O)O)NC(=O)[C@@H](NC(=O)[C@H](Cc1ccccc1)NC(=O)[C@H](CO)NC(=O)[C@@H](N)CS)[C@@H](C)O)C(=O)N[C@@H](CCCCN)C(=O)N[C@@H](CCCNC(=N)N)C(=O)N[C@@H](CCCNC(=N)N)C(=O)N[C@@H](CCCCN)C(=O)N[C@@H](COP(=O)(O)O)C(=O)N[C@H](C(=O)O)C(C)C` [TASK-3 pS373] (H-CSFTDHQRLMKRRK[pS]V-OH; N-terminus assumed), the Kd [1, 7] is reported as about 0.1 µM.

Work on `CSCC[C@H](NC(=O)[C@H](CC(C)C)NC(=O)CNC(=O)[C@H](CCCNC(=N)N)NC(=O)[C@H](Cc1ccccc1)NC(=O)[C@@H](NC(=O)[C@H](CO)NC(=O)[C@H](CC(C)C)NC(=O)[C@H](CO)NC(=O)[C@@H](N)CS)[C@@H](C)O)C(=O)N[C@@H](CCCCN)C(=O)N[C@@H](CCCNC(=N)N)C(=O)N[C@@H](CCCNC(=N)N)C(=O)N[C@@H](COP(=O)(O)O)C(=O)N[C@@H](CO)C(=O)N[C@H](C(=O)O)C(C)C` [TASK-1 pS392] (H-CSLSTFRGLMKRR[pS]SV-OH) yielded a Kd ([1]; fluorescence polarization titration, all seven 14-3-3 proteins, read-out: Kd values across the 14-3-3 proteins (approximate, Table S1)) of about 100 µM.

For `CSCC[C@H](NC(=O)[C@H](CC(C)C)NC(=O)CNC(=O)[C@H](CCCNC(=N)N)NC(=O)[C@H](Cc1ccccc1)NC(=O)[C@@H](NC(=O)[C@H](CO)NC(=O)[C@H](CC(C)C)NC(=O)[C@H](CO)NC(=O)[C@@H](N)CS)[C@@H](C)O)C(=O)N[C@@H](CCCCN)C(=O)N[C@@H](CCCNC(=N)N)C(=O)N[C@@H](CCCNC(=N)N)C(=O)N[C@@H](COP(=O)(O)O)C(=O)N[C@@H](COP(=O)(O)O)C(=O)N[C@H](C(=O)O)C(C)C` [doubly phosphorylated peptide] (H-CSLSTFRGLMKRR[pS][pS]V-OH; N-terminus assumed), the “Kd values across the 14-3-3 proteins (approximate, Table S1)” value ([1]; fluorescence polarization titration, all seven 14-3-3 proteins) was “high micromolar range”.

Work on “14-3-3σ (from UniProt P31947 1-248) (natural protein)” yielded a Kd [2] of 100 µM, a Kd [3] of 3.6 µM and a Kd [4] of 0.742 µM.

B1: 14-3-3η (natural protein)
chain: MGDREQLLQRARLAEQAERYDDMASAMKAVTELNEPLSNEDRNLLSVAYKNVVGARRSSWRVISSIEQKTMADGNEKKLEKVKAYREKIEKELETVCNDVLSLLDKFLIKNCNDFQYESKVFYLKMKGDYYRYLAEVASGEKKNSVVEASEAAYKEAFEISKEQMQPTHPIRLGLALNFSVFYYEIQNAPEQACLLAKQAFDDAIAELDTLNEDSYKDSTLIMQLLRDNLTLWTSDQQDEEAGEGN
In the case of B1, the Kd [5] is reported as 0.115 µM, the Kd [2] is reported as 100 µM and the Kd [3] is reported as 0.11 µM.

B2: 14-3-3τ (natural protein)
chain: MEKTELIQKAKLAEQAERYDDMATCMKAVTEQGAELSNEERNLLSVAYKNVVGGRRSAWRVISSIEQKTDTSDKKLQLIKDYREKVESELRSICTTVLELLDKYLIANATNPESKVFYLKMKGDYFRYLAEVACGDDRKQTIDNSQGAYQEAFDISKKEMQPTHPIRLGLALNFSVFYYEILNNPELACTLAKTAFDEAIAELDTLNEDSYKDSTLIMQLLRDNLTLWTSDSAGEECDAAEGAEN
With B2 the Kd [5] was 0.246 µM, the Kd [2] was 100 µM and the Kd [6] was 49.4 µM.

B3: 14-3-3ζ (natural protein)
chain: MDKNELVQKAKLAEQAERYDDMAACMKSVTEQGAELSNEERNLLSVAYKNVVGARRSSWRVVSSIEQKTEGAEKKQQMAREYREKIETELRDICNDVLSLLEKFLIPNASQAESKVFYLKMKGDYYRYLAEVAAGDDKKGIVDQSQQAYQEAFEISKKEMQPTHPIRLGLALNFSVFYYEILNSPEKACSLAKTAFDEAIAELDTLSEESYKDSTLIMQLLRDNLTLWTSDTQGDEAEAGEGGEN
In the case of B3, the Kd [5] is reported as 0.221 µM and the Kd [2] is reported as 100 µM.
